# Measurements reported in US20190300590A1 (PROTAGONIST THERAPEUTICS, published 2019).
# Bridges are numbered along the chain shown (N, C = ends). [ ]: non-standard residue; d: D form. 2Nal = N[C@@H](Cc1ccc2ccccc2c1)C(=O)O; AEF = NCCOc1ccc(C[C@H](N)C(=O)O)cc1; NMeR = CN[C@@H](CCCNC(=N)N)C(=O)O; Cit = NC(=O)NCCC[C@H](N)C(=O)O; αMeL = CC(C)C[C@](C)(N)C(=O)O; NMeK = CN[C@@H](CCCCN)C(=O)O; αMeK = C[C@](N)(CCCCN)C(=O)O; Ac5c = NC1(C(=O)O)CCCC1; Abu = CC[C@H](N)C(=O)O; Dap = NC[C@H](N)C(=O)O; Aib = CC(C)(N)C(=O)O; PEG1 = NCCOCCC(=O)O; AEA = NCCOCC(=O)O; βAla = NCCC(=O)O
# T1: IL23R_huFC (human, UniProt Q5VWK5 24-353)
# T1 sequence (looked up): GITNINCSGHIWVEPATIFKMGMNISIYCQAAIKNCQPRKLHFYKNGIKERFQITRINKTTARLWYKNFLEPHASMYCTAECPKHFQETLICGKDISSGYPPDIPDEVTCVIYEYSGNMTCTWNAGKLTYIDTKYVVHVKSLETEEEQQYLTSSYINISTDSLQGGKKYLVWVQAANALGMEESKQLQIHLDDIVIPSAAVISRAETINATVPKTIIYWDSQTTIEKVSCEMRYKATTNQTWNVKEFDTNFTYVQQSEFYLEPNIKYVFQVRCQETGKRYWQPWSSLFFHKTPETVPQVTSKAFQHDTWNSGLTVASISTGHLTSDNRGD
# T2: IL-23R on human cells (IL-23R-expressing DB cells; human NK cells) (human, UniProt Q5VWK5 24-629)
# T2 sequence (looked up): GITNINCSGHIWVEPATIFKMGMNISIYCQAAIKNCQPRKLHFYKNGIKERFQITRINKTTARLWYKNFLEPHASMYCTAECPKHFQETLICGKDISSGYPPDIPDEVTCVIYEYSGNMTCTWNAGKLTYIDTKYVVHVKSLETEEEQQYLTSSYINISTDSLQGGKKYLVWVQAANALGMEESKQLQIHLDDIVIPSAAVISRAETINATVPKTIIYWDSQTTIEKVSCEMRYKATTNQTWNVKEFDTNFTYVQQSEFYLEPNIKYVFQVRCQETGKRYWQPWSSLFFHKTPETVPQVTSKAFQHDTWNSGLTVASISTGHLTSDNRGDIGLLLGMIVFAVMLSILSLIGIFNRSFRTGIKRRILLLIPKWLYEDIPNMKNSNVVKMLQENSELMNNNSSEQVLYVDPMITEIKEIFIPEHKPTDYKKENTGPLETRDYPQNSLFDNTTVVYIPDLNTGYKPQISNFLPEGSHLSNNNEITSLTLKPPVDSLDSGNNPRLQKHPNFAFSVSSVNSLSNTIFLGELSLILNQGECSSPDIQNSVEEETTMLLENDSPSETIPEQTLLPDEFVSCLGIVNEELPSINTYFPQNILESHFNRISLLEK
# B1: Ac-CQTWQCYWR-[N-MeLys]-NG-[AEA]-[(D)-Lys]-NH2 (peptide)
# peptide: Ac-CQTWQCYWR[NMeK]NG[AEA][dK]-NH2
# modifications: disulfide 1-6
# SMILES: CC(=O)N[C@H]1CSSC[C@@H](C(=O)N[C@@H](Cc2ccc(O)cc2)C(=O)N[C@@H](Cc2c[nH]c3ccccc23)C(=O)N[C@@H](CCCNC(=N)N)C(=O)N(C)[C@@H](CCCCN)C(=O)N[C@@H](CC(N)=O)C(=O)NCC(=O)NCCOCC(=O)N[C@H](CCCCN)C(N)=O)NC(=O)[C@H](CCC(N)=O)NC(=O)[C@H](Cc2c[nH]c3ccccc23)NC(=O)[C@H]([C@@H](C)O)NC(=O)[C@H](CCC(N)=O)NC1=O
# B2: Ac-CQTWQCYWR-[(D)Glu]-NG-[AEA[(D)-Lys]-NH2 (peptide)
# peptide: Ac-CQTWQCYWR[dE]NG[AEA][dK]-NH2
# modifications: disulfide 1-6
# SMILES: CC(=O)N[C@H]1CSSC[C@@H](C(=O)N[C@@H](Cc2ccc(O)cc2)C(=O)N[C@@H](Cc2c[nH]c3ccccc23)C(=O)N[C@@H](CCCNC(=N)N)C(=O)N[C@H](CCC(=O)O)C(=O)N[C@@H](CC(N)=O)C(=O)NCC(=O)NCCOCC(=O)N[C@H](CCCCN)C(N)=O)NC(=O)[C@H](CCC(N)=O)NC(=O)[C@H](Cc2c[nH]c3ccccc23)NC(=O)[C@H]([C@@H](C)O)NC(=O)[C@H](CCC(N)=O)NC1=O
# B3: Ac-CRDWQCYW-[N-MeArg]-KFG-[AEP]-[(D)-Lys]-NH2 (peptide)
# peptide: Ac-CRDWQCYW[NMeR]KFG[PEG1][dK]-NH2
# modifications: disulfide 1-6
# SMILES: CC(=O)N[C@H]1CSSC[C@@H](C(=O)N[C@@H](Cc2ccc(O)cc2)C(=O)N[C@@H](Cc2c[nH]c3ccccc23)C(=O)N(C)[C@@H](CCCNC(=N)N)C(=O)N[C@@H](CCCCN)C(=O)N[C@@H](Cc2ccccc2)C(=O)NCC(=O)NCCOCCC(=O)N[C@H](CCCCN)C(N)=O)NC(=O)[C@H](CCC(N)=O)NC(=O)[C@H](Cc2c[nH]c3ccccc23)NC(=O)[C@H](CC(=O)O)NC(=O)[C@H](CCCNC(=N)N)NC1=O
# B4: Ac-CRDWQCYW-[(D)Arg]-[(D)Lys]-FG-[AEP]-[(D)-Lys]-NH2 (peptide)
# peptide: Ac-CRDWQCYW[dR][dK]FG[PEG1][dK]-NH2
# modifications: disulfide 1-6
# SMILES: CC(=O)N[C@H]1CSSC[C@@H](C(=O)N[C@@H](Cc2ccc(O)cc2)C(=O)N[C@@H](Cc2c[nH]c3ccccc23)C(=O)N[C@H](CCCNC(=N)N)C(=O)N[C@H](CCCCN)C(=O)N[C@@H](Cc2ccccc2)C(=O)NCC(=O)NCCOCCC(=O)N[C@H](CCCCN)C(N)=O)NC(=O)[C@H](CCC(N)=O)NC(=O)[C@H](Cc2c[nH]c3ccccc23)NC(=O)[C@H](CC(=O)O)NC(=O)[C@H](CCCNC(=N)N)NC1=O
# B5: Ac-CRDWQCYWR-[(D)Lys]-FG-[AEP]-[(D)-Lys]-NH2 (peptide)
# peptide: Ac-CRDWQCYWR[dK]FG[PEG1][dK]-NH2
# modifications: disulfide 1-6
# SMILES: CC(=O)N[C@H]1CSSC[C@@H](C(=O)N[C@@H](Cc2ccc(O)cc2)C(=O)N[C@@H](Cc2c[nH]c3ccccc23)C(=O)N[C@@H](CCCNC(=N)N)C(=O)N[C@H](CCCCN)C(=O)N[C@@H](Cc2ccccc2)C(=O)NCC(=O)NCCOCCC(=O)N[C@H](CCCCN)C(N)=O)NC(=O)[C@H](CCC(N)=O)NC(=O)[C@H](Cc2c[nH]c3ccccc23)NC(=O)[C@H](CC(=O)O)NC(=O)[C@H](CCCNC(=N)N)NC1=O
# B6: Ac-CRDWQCYW-[(D)Arg]-KFG-[AEP]-[(D)-Lys]-NH2 (peptide)
# peptide: Ac-CRDWQCYW[dR]KFG[PEG1][dK]-NH2
# modifications: disulfide 1-6
# SMILES: CC(=O)N[C@H]1CSSC[C@@H](C(=O)N[C@@H](Cc2ccc(O)cc2)C(=O)N[C@@H](Cc2c[nH]c3ccccc23)C(=O)N[C@H](CCCNC(=N)N)C(=O)N[C@@H](CCCCN)C(=O)N[C@@H](Cc2ccccc2)C(=O)NCC(=O)NCCOCCC(=O)N[C@H](CCCCN)C(N)=O)NC(=O)[C@H](CCC(N)=O)NC(=O)[C@H](Cc2c[nH]c3ccccc23)NC(=O)[C@H](CC(=O)O)NC(=O)[C@H](CCCNC(=N)N)NC1=O
# B7: Ac-CQTWQCYWR-[N-MeArg]-NG-[AEA]-[(D)-Lys]-NH2 (peptide)
# peptide: Ac-CQTWQCYWR[NMeR]NG[AEA][dK]-NH2
# modifications: disulfide 1-6
# SMILES: CC(=O)N[C@H]1CSSC[C@@H](C(=O)N[C@@H](Cc2ccc(O)cc2)C(=O)N[C@@H](Cc2c[nH]c3ccccc23)C(=O)N[C@@H](CCCNC(=N)N)C(=O)N(C)[C@@H](CCCNC(=N)N)C(=O)N[C@@H](CC(N)=O)C(=O)NCC(=O)NCCOCC(=O)N[C@H](CCCCN)C(N)=O)NC(=O)[C@H](CCC(N)=O)NC(=O)[C@H](Cc2c[nH]c3ccccc23)NC(=O)[C@H]([C@@H](C)O)NC(=O)[C@H](CCC(N)=O)NC1=O
# Target: T1, IL23R_huFC
# Experiment: IL23-IL23R competitive ELISA
row,IC50 [nM],Binder
1,> 1000,Ac-CADWECYWHTFG-NH2 (disulfide 1-6 (inferred)) [Ac-CADWECYWHTFG-NH2]
2,> 1000,Ac-CADWKCYWHTFG-OH (disulfide 1-6 (inferred)) [Ac-CADWKCYWHTFG-OH]
3,> 1000,Ac-CQTWQCYW[dR]ENG[AEA][dK]-NH2 (disulfide 1-6 (inferred)) [Ac-CQTWQCYW-[(D)Arg]-ENG-[AEA]-[(D)-Lys]-NH2]
4,> 1000,B1
5,> 1000,"Ac-CQTWQCYW[NMeR]ENG[AEA][dK]-NH2 (disulfide 1-6 (inferred)) [Ac-CQTWQCYW-[N-MeArg]-ENG-[AEA]-[(D)-Lys]-NH2, listing 1 of 2 here]"
6,> 1000,B2
7,> 1000,B3
8,> 1000,B4
9,> 1000,B5
10,> 1000,B6
11,> 1000,Ac-CQTWQCYW[dR][dE]NG[AEA][dK]-NH2 (disulfide 1-6 (inferred)) [Ac-CQTWQCYW-[(D)Arg]-[(D)Glu]-NG-[AEA]-[(D)Lys]-NH2]
12,> 1000,"Ac-CQTWQCYW[NMeR]ENG[AEA][dK]-NH2 (disulfide 1-6 (inferred)) [Ac-CQTWQCYW-[N-MeArg]-ENG-[AEA]-[(D)-Lys]-NH2, listing 2 of 2 here]"
13,> 1000,B7

# Target: T2, IL-23R on human cells …
# Experiment: cell-based or functional assay
row,pStat3 HTRF IC50 [nM],Binder
1,< 10,Ac-[Abu]QTWQC[AEF][2Nal][Aib]E[Dap](Ac)G-NH2 (thioether 1-6) [Ac-Cyclo-[[Abu]-QTWQC]-[Phe[4-(2-aminoethoxy)]]-[2-Nal]-[Aib]-E-[Dap(Ac)]-G-NH2]
2,< 10,Ac-[Abu]QTWQC[AEF][2Nal][αMeL]K(Ac)NG-NH2 (thioether 1-6) [Ac-Cyclo-[[Abu]-QTWQC]-[Phe[4-(2-aminoethoxy)]]-[2-Nal]-[α-MeLeu]-[Lys(Ac)]-NG-NH2]
3,< 10,Ac-[Abu]QTWQC[AEF][2Nal][4‑amino‑4‑carboxy‑piperidine]ENN-NH2 (thioether 1-6) [Ac-Cyclo-[[Abu]-QTWQC]-[Phe[4-(2-aminoethoxy)]]-[2-Nal]-[4-amino-4-carboxy-piperidine]-ENN-NH2]
4,< 10,Ac-[Abu]QTWQC[AEF][2Nal][Aib]QN[βAla]-NH2 (thioether 1-6) [Ac-Cyclo-[[Abu]-QTWQC]-[Phe[4-(2-aminoethoxy)]]-[2-Nal]-[Aib]-QN-[βAla]-NH2]
5,< 10,Ac-[Abu]QTWQC[AEF]W[αMeK]K(Ac)NG-NH2 (thioether 1-6) [Ac-Cyclo-[[Abu]-QTWQC]-[Phe[4-(2-aminoethoxy)]]-W-[α-MeLys]-[Lys(Ac)]-NG-NH2]
6,< 10,Ac-[Abu]QTWQC[AEF][2Nal][αMeL]ENG-NH2 (thioether 1-6) [Ac-Cyclo-[[Abu]-QTWQC]-[Phe[4-(2-aminoethoxy)]]-[2-Nal]-[α-MeLeu]-ENG-NH2]
7,< 10,Ac-[Abu]QTWQC[AEF][2Nal][αMeL]QNG-NH2 (thioether 1-6) [Ac-Cyclo-[[Abu]-QTWQC]-[Phe[4-(2-aminoethoxy)]]-[2-Nal]-[α-MeLeu]-QNG-NH2]
8,< 10,Ac-[Abu]QTWQC[AEF][2Nal][Cit][Dap]NG-NH2 (thioether 1-6) [Ac-Cyclo-[[Abu]-QTWQC]-[Phe[4-(2-aminoethoxy)]]-[2-Nal]-[Cit]-[Dap]-NG-NH2]
9,< 10,Ac-[Abu]QTWQC[AEF][2Nal][Ac5c]ENN-NH2 (thioether 1-6) [Ac-Cyclo-[[Abu]-QTWQC]-[Phe[4-(2-aminoethoxy)]]-[2-Nal]-[Acvc]-ENN-NH2]
